The labels stand for the following.
B1: (2E9+GFP) (protein, part only; not given: linker, GFP, His tag, part only)
chain, part: ESGGGSVQAGGSLRLSCTASGFTFADSDMGWYRQAPGKERERVAAIDSDGRTSYADSVKGRFTISKDNAKNTLYLQMNSLKPEDTAMYYCAAGVPTYDSSWCSRDYWGKGTQVTVSS
B2: (53A1+GFP) (protein, part only; not given: linker, GFP, His tag, part only)
chain, part: ESGGGSVQVGESLRLACTASEFTFDDTDVGWYRQAPGNECELVSSINSDGGTYYTDSVKGRFTISLDNGKNTVYLQMDSLKPEDTAVYYCVADAKVKAQALGTLLCRILGNWGQGTQVTVSS
B3: (2B12+GFP) (protein, part only; not given: linker, GFP, His tag, part only)
chain, part: B2 chain, part
B4: (2E9+RFP) (protein, part only; not given: linker, RFP, His tag, part only)
chain, part: B1 chain, part
B5: (2B12+RFP) (protein, part only; not given: linker, RFP, His tag, part only)
chain, part: B2 chain, part
B6: (53A1+RFP) (protein, part only; not given: linker, RFP, His tag, part only)
chain, part: B2 chain, part

Results on 6 molecules are retold here after KR20150001391A.

The target in the first assay is M13 박테리오파지에서 전시되는 스트렙타비딘(streptavidin). Kind of assay: fluorescence ELISA; plate coated with streptavidin-displaying M13 phage; fusion protein at 10, 50, 100 μg/ml; ex 395 nm / em 509 nm; reference is biotin-bound GFP. On the technique in general: ELISA stands for enzyme-linked immunosorbent assay.
In the case of B1, the fold fluorescence against biotin-bound GFP is 2 배 (fold).

B2: the fold fluorescence against biotin-bound GFP is 2 배 (fold).

Consider B3, for which the fold fluorescence against biotin-bound GFP is 2 배 (fold).

The target is the same in a further assay. Kind of assay: fluorescence ELISA; plate coated with streptavidin-displaying M13 phage; fusion protein at 10, 50, 100 μg/ml; ex 554 nm / em 581 nm; reference is biotin-bound RFP.
Regarding B4, the fold fluorescence against biotin-bound RFP is 2 배 (fold).

On to B5, for which the fold fluorescence against biotin-bound RFP was 2 배 (fold).

On to B6, for which the fold fluorescence against biotin-bound RFP was 2 배 (fold).
